Data on 70 sequences can be found in the domain aggregation screens of Martell et al. (2025).
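Note: 20 min heating vs room temperature control held 20 min.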

This series in a line: soluble fraction after stress (log2 fold change); higher = more stays soluble; pooled small domains, quantitative proteomics. As to conditions: stress: 75 degC.
Turning to “HMNDPIESLTPREREVLTLMAEGRTNAAIAAQLVVTEGAVEKHTQHIFAKLGLLPDSAVHRRVKAVLALLS”, the “soluble fraction (log2)” value is -2.35.
The figure for “HMNDPNAPITENQLKAIHVLLDKLKVDDNLKHAYIADVLQLDNEPETLKTLTKAQGSMAIERMQLLKDN” is 0.736; for “HMNDQLIYSDFIRQVQDGQITEVTISGLNIAGTRSDGSVFNTLRPYIEDPKLIDDLLSHNVRIQGAE” it is 0.168.
In the case of “HMNDRERIGKRIAQLRMEAGISQYKLAELTGLAPGNIARIETGKYSTGIDILSKIGDALGYQLDFI” it was -2.14; in that of “HMNDRLAGMEGQRGEAATNFDQGEGKVKVGDTVWLAKQSDSTVIVEGDQIVVTGSENGLLKVRL”, -0.25; in that of “HMNDTLGVNIKRLRKEKGMTQDEVAKAVYTTRYNILRYESGKMTPSSEVIERLEKALGVPTGSLAQ”, -0.348.
In the case of “HMNDTSLIIDNLMLKLGNNIKNFSEIYSLLRKNLAEYGEEFIKSKVDYVLKNFNDNIEENLKKLLTE” it was -0.394; in that of “HMNDVGKVLNQLGERDRMILLLTYWDELPLKEAARILEVSENNAKIILFRARSRFASLWSAGS”, -3.14.
Regarding “HMNEAVVVPDVKGLTLDEADEFFKNSKLRYNVVDSVFSKDVAPGAIVELVPVAGSKVKENRIVFVTINAQ”, the “soluble fraction (log2)” value was -0.361.
The figure for “HMNEDTEDIKNINSLVNKLTENNFDIIRDSIVKLINKEHLIPYIIETIIEKSILHHRYVHLYVSILKE” is 0.219; for “HMNEDYSSMVGKTGFALTILRPAGKIMIEEEVFDAVAINGYISKGQEVEVVRYENAQLYVKVK” it is -1.04.
In the case of “HMNEFGIPDKKLQDIETRVNSMSLEQLNAARSMLIDEQEALNSSTGSASSGRLKEIAAELSTIQKALIAIA” it was -0.00417; in that of “HMNEFNEVVPDSLEGERLDRLLAFIGNISRSEASNIIKGGEVLINGKVVTRPSFKVTLGNRVEFSIRD”, -0.531.
Regarding “HMNEGETLYRLRAGDGRARLDKFLAAALPDISRTRFKGLIESGHVRVGGETITEPAYRVKSEAEVELTVPE”, the “soluble fraction (log2)” value worked out at 0.0126.
The figure for “HMNEIALETAIEDVESFIQMQNRNLAFSIDEDTDRAVVTVRDSDSGDVIRQIPSEEVLALAERIQDLQQD” is 0.0361; for “HMNEIDDYDIQLLEYLSKGVSQEAMESVFKQAGITPNSKSTIEKRISKLKIYFKALNTTHLVSITKDLGL” it is -0.647.
Take “HMNEKEAEEAAEAQTEVPDVTGMAPAQAKNMLYQAGLSSEYRGEGETVSRQLPPAGETVNRGTKAVLYL”: the “soluble fraction (log2)” value is 0.0203.
In the case of “HMNEKGTNSTINEITRISKPGRRVYVGSAEIPKVKSGRGLVLISTSKGVMTGAEAAKAKLGGELLLKV” it was -0.000493.
Consider “HMNEKMKEIGLRIKELRELSDISAQGMADHLKIPLETYQEYEDGKKDIPASILFEISQKMEVDMGLLLTGE”, for which the “soluble fraction (log2)” value is -0.476.
Turning to “HMNELTDKQILLFSNKLAHNIPFSSKYSKPGESYEEFAERLANELIDPQKVKLYKPYLEEVGFK”, the “soluble fraction (log2)” value was 0.788.
In the case of “HMNEMIFNQKKIGQFFMNPETNSPMIYPLELGHKMKIIELKNGWYNVTDEKTGLNGWVKEEDFGVTKPLDS” it was -0.346; in that of “HMNENDENLRQQAIDASKEVRRWGEPVTLPPMNAHDRRIIHITLEGESDLQTESTGEGNFKSVVISLK”, -0.171.
In the case of “HMNEPSSYGYAISVALDRNGLGTVKGGTLYPLLARLEQAAHVETRWEAGDGGPGRKYYTITDSGRS” it was -0.214; in that of “HMNERLKQLRLSLNLNQEEFGKWLGISKSGVSDIESGRRKVTEQHIIMLSNHNISEKWLRTGEGEMFV”, -1.21.
“HMNETNKMPNLVNQTDSSAIAQLNAMELGLKITTKEESSETVLAGYVIRTEPAADTELTKNQAVTVYVS”: the “soluble fraction (log2)” value is -0.00951.
In the case of “HMNETTVPDVINQNISTGKIIIEDADLEYRIQYIPSEKSSSIGTIINSIPIYGKRVKSGTIVDLKVLG” it was -0.248.
“HMNETVTNQTVLDLLKEGFTSEEIIGAIENSSTRTITYDINFMRQLKAAGADVTLTTYLQKIAKKDM”: the “soluble fraction (log2)” value was -0.136.
Consider “HMNEWSIDINLADEKQWTAKTKLSPAIIQNIIRYKNYLGGFTNLNQIKKVYGFTEANYYLLKPHLQLGK”, for which the “soluble fraction (log2)” value is -0.837.
In the case of “HMNFDLDSFKQRMTLDGLYFGNEKQDVIALNNLSERYQLTWFDVYQLAKETSSNHKILPKRILVKLQQ” it was -2.09; in that of “HMNFEIEVTENGKRIDSYLAEELDLSRSKVQKLIKQELVTVNGKVVSNNYNVKLGDTILVNDD”, 0.113; in that of “HMNFFQEIGNSILIELNKKNWTQSMFAHKIGVSDEVFKQIVQGKKALNAVEIAKIANTLDVDPEKLLRK”, -1.08.
In the case of “HMNFTEAEQRFHFLEDQRQRGVLSLEQYRAELAQLRVTDAWGRLWMLQEQTGQWFVFHEGQWRPSQ” it was -0.408; in that of “HMNGEDVTDAIRLPQISQYASVVSAYPGVRAFLLEMQRDFARKGSVIMDGRDIGTVVLPEAEVKIFLT”, -0.367; in that of “HMNGGPHYLRDVRTSLGLSQADLAKAVGTSANMIHYLESGERALTLKWIRRISEALNVSPMRLIN”, -2.06.
The figure for “HMNGLPDLSRYTGVSIVDGLASVGSDSSFAYRAKIAETLGISDYKGSAGQNLEMIRKLGGKV” is -0.517; for “HMNGTGSVYKLSGKRRNPWRAVVTNGWAYNEEKGKLVQNRVTIGYYHTRDEAIQAIANYNSSP” it is -1.53.
In the case of “HMNGVFIMHTPDGKVLRTEEGEEAVITLFNWSGQLLWSKTSLGQLPLPEGTQGVLQVQYKSGDQHTIKT”, the “soluble fraction (log2)” value was -1.28.
In the case of “HMNHAPSLMRKIRRGLKEGRNPDDLLVNAKSISDYYYRSLSFYLLAPHFSSKSKQYKQVISLANS” it was -0.064; in that of “HMNHHTEQQLKALSNKVKDHRMRMRLLAVAHFKAGKNKADVARTLNVSRRMVNEWVANYFKGGVSALES”, -3.43; in that of “HMNHLLYPNPANNFIWIKNSTSNTAVIYNLQGVMSKVEVSEEGKIDISRFSPGLYMIKQGERIYKFTIA”, -1.75.
On to “HMNHLSYEQRLKIKEMLDGGFKKIDIARALGVHNATIYREIERGSVNGIYNPNKSEEQYRDHLSEK”, for which the “soluble fraction (log2)” value came to 0.378.
The figure for “HMNHYIGVDRAKEIALNHANLSETDVVFTKEKLENDDGGAEYEIEFHSGRTEYDYTIDAASGNIIEYDVDY” is 0.324; for “HMNIDGLIGKKALVTADIDNVNSKGQIKINGLEWTARSVDDEPIPMGTEVEITAISGVKAIVRKG” it is 0.139; for “HMNIEANLEDILRRAMPSAAKLILENSLNINKIIGTGKEGRITKGDVLLYLKDKNLILENILN” it is -0.079.
The figure for “HMNIEEAESILKEIKTVLTDKEYEVYTLRAKGFTYQEIASLLNTTTKSVDGALSRIKTKINNIK” is -0.674.
With “HMNIFKLYEENIGPLTPMIADILKEDEAEFPDYWIREAIEIAVKKNARNWKYVHAVLESWQKE”, the “soluble fraction (log2)” value was -3.47.
In the case of “HMNILKAPMPGLILDVIVKESDLVKKGDPVIILEAMKMENILSSPVDGIVKEIKVNPQQTVEKNNTLIKFE” it was -0.0843.
The figure for “HMNILNFSENIIKLRHKKGITQEELADFVGVTKASVSKWETKQSLPDIMLLPRLAAYFDVTVDELLGYEP” is -2.16; for “HMNINHEINIKSKKKISILENNPNLSQFYLTKNPDQYNYNLVFSDKSELNKLKEKLESDNEVEDIDIRYG” it is -0.0517; for “HMNINTEMEKVSYSLGVNIASSLKQQGWELDAKSLSDAFVDVFNGNKLLIDEKEASSILQNYQQKIANK” it is 0.0321.
On to “HMNIQKYFAGREQFIELLEAVGIRTLEQFASADPSTVLPELHQAKRMLKLQTEIPSAPVFREWVNQALS”, for which the “soluble fraction (log2)” value was -0.636.
In the case of “HMNIQPAMLNAANGGVAWKERGISMSQIMKRNAHTAEGSQKLWDYAFENFFQKNIDAGNIRDDR” it was -0.157.
In the case of “HMNIVKGDTTANVRVVQQRLYNLGYYTYKVDGIWGTRTKTAVKKFQKDKGLVADGIVGAKTEKALGITLT” it was -2.35.
In the case of “HMNIVVSSIDSNSFEIVNKETGEQAVISYDKETKKGFVLINGVKKEFFQDGNKVYYDGYVIAE” it was 0.0406.
In the case of “HMNKDEFLNELKSYLSILEDEEQADILEEYTQHIDMKISTGLSEAEAIRDFGNVSELAAQILEAY”, the “soluble fraction (log2)” value was -0.465.
In the case of “HMNKIGTIVSINGPIVKTAGDVGFVMHEMVYVGKEKLVGEVIGLTTDFTIVEVYEETSGIKPGETIEGT” it was -1.87.
The figure for “HMNKKEIISVLEKIIPPSQIKNINIFGSELVIDLNIDNPSLHAKKKLEKSIMSSFDENLKIIVNFSVE” is -0.252; for “HMNKLSISALAETVSTKRKEKSMTQQDLSDATGINRALISRLEQKDFIPSIPQLEKLEEILGFELEEVF” it is -0.324; for “HMNKMHKLPSVSEILNKVRLQKIHNESFIKFKIKEEIDRYRKLAKKDQLFLSRDEITYEIIEKLLNFSMPS” it is -3.97.
Consider “HMNKMIDAPDLTGLSLEDAKLVLEANKLQLGTVSHEPSDKPEDVVISQDPMEGQEIQQGGKVNLVVSYGD”, for which the “soluble fraction (log2)” value stood at 0.305.
In the case of “HMNKNNLRNVSSKIRKSRRVLNLSQAELSKKLDISPSYLNLIESGKRPITVPLLIKLGNILGISLKDL” it was -1.89; in that of “HMNKNQIGTNAGIVWKLLSDNVHWEYDKLKHASGLSDRDLNAAIGWLAREDKIDFDIDEQHDRLFL”, -0.515; in that of “HMNKPKIIINSVDDSVFSDYVKDSLSIAEVARSIGIDNNKINTSVYREIHKRIDSLKLDTSHFTGGAWN”, -0.235.
In the case of “HMNKPLFVYPNPVHQGKINLSKATNFMVVDLLGQTVNKTNYGKDFSIDNLPNGVYFIKTTEGEIIKFMK” it was -0.701; in that of “HMNKQEFLNTLRIIFKKANVLDVESIIDVYEEHFAVGYEKGLNDEQIIKSLGTPKEIYTSYVEAGI”, -1.31; in that of “HMNKSGVVLIRVTVDASGRVTSAAYEPKGSTTSDVELVAEARKAALRTRFTESRTVIEGGVITYIFKL”, -2.59.
In the case of “HMNKSYTVPDVRGMTVEEAQEAEGVKDIFTVHVQGTRKTDEYQPGQIVEQDPIAGRTRKSNFVIEVYVAE” it was -0.34.
Regarding “HMNKTQLQIEDEVLKPLIAEIFSKSKGRFGARKIRSKLMGLGYTASERRILRLMKELGLSSAG”, the “soluble fraction (log2)” value is -1.19.
In the case of “HMNKTVKIPNVSNLSREDAESVLKENGISVNSEVKQIESDTIEKGKVVKTDPSIGTSVKKGRSITIYVSSG” it was 0.544.
In the case of “HMNKWMQLASEEDKKLFNEAPKEIQDSITESAKFFDIRTKADVDTFWANTGLRQMKQQAMLNESFVNEY”, the “soluble fraction (log2)” value is -0.0697.
